Where a SMILES comes first, the peptide text is derived from it. [ ]: non-standard residue; d: D form. The star is where a group is joined. X1 = CCn1nc(C)cc1C(=O)Nc1nc2cc(C(N)=O)cc(OC)c2n1C/C=C/Cn1c(NC(=O)c2cc(C)nn2CC)nc2cc(C(N)=O)cc(OCCC[N+]3(Cc4ccc(NC(=O)OCCS*)cc4)CCOCC3)c21
How the values were obtained:
[1] = mouse, in vivo, iv
Protocol: (§1) For pharmacokinetics (PK), biodistribution, pH imaging studies and immunohistochemistry, 5x10^4 of CT26 cancer cells were injected SQ in 100 µl of growth medium into the right flank of female Balb/c mice and tumors were grown until they reached 150-200 mm^3 in volume. […] Animals were euthanized at 2, 4, 24, 48, 72 and 96 hours post-injection, blood was collected in K2 EDTA vacutainer blood collection tubes (BD), and necropsy was performed immediately after euthanization. Blood, tumors and major organs (kidney, liver, spleen, pancreas, lung, heart, large and small intestines, bone, muscle, brain) were collected, and imaged ex vivo immediately after necropsy. Blood (150 µl) was imaged in 96-well plate with black bottom and walls. […] The fluorescence at zero-time point was taken as 100% and fluorescence recorded at 2, 4, 24 and 48 hrs p.i. were calculated as a percentage of zero-time point signal. […]
(§2) The in vivo and ex vivo bright field and near-infrared fluorescent imaging was performed using a Stryker 1588 AIM endoscopic system with L10 AIM Light Source (808 nm excitation and collection of light in the range of approximately of 815 to 850 nm), and a 1588 AIM Camera using a 10 mm scope. […] The calculated total fluorescence intensity and total area of each organ were used to calculate the mean organ fluorescence.

[2] = test system: CT26 tumor; settings: mouse, in vivo
Protocol: as §1, §2

[3] = test system: CT26 tumors; test: Treatment of small (100 mm^3) CT26 tumors in Balb/c mice; type: in vivo, mouse; settings: single injection, same molar dose level as pHLIP-STINGa
Protocol: On day 1, when tumors reached size of 100 mm^3 (“small tumors”) or 400-700 mm^3 (“large tumors”), mice were randomized into groups, body weight was measured and agents including pHLIP(Laa)-STINGa, pHLIP(Daa)-STINGa, pHLIP(Laa), STINGa (diABZI) or vehicle were given as a single intraperitoneal (IP) or intravenous (IV) injection. Vehicle, pHLIP(Laa), STINGa (diABZI) and pHLIP(Laa)-STINGa were given as a single IP injection of 100 μM 300 µl. pHLIP(Daa)-STINGa was given as a single IV injection of 200 μM 150 μl. The compounds were dissolved in DMSO as a stock solution and transferred to 20% PEG400 in saline containing 0.9% sodium chloride (vehicle). The residual DMSO in the final solution injected into animals was less than 2%. Tumor volume and body weight were measured 3 times per week throughout the study. Measurements of tumors were performed using calipers, and the tumor volume (V) was calculated with the formula: […]
where L is the length and W is the width of the measured tumor. Mice were removed from the study and euthanized when the tumor volume was greater than 2000 mm^3.

[4] = STINGa on its own; ref [11]; cited from earlier work
[5] = Stability in human plasma; type: in vitro ADME
Protocol: (§3) To establish the stability of pHLIP(Laa)-STINGa and pHLIP(Daa)-STINGa in plasma, pHLIP-STINGa was mixed with single donor human or BALB/c mouse plasma (Innovative Research) at a concentration of 200 μM, and kept in plasma for 0, 2, 4 or 24 hours at 37°C. Plasma proteins were precipitated by methanol (1:5 volume ratio of plasma to methanol) and centrifugated for 10 min at […]. The supernatant was collected and analyzed by HPLC using a Zorbax SB-C18 4.6 × 250 mm, 5 μm column with a gradient from 10% to 75% acetonitrile in water containing 0.05% TFA. Chromatograms were recorded at 220 nm, 280 nm and 320 nm. As controls pHLIP(Laa), pHLIP(Daa), Pys-PAB-STINGa, SH-PAB-STINGa, where Pys-PAB-STINGa was conjugated with a Cys residue, and diABZI (In vivogen) were analyzed for stability in plasma under the same conditions.

[6] = Stability in mouse plasma; type: in vitro ADME
Protocol: as §3

[7] = test system: human plasma proteins; test: Binding to human plasma proteins (plasma stability study); type: in vitro ADME; settings: for amount of product bound to plasma proteins (in brackets): single donor human plasma, 200 μM, 37°C, HPLC
Protocol: as §3

[8] = test system: mouse plasma proteins; test: Binding to mouse plasma proteins (plasma stability study); type: in vitro ADME; settings: BALB/c mouse plasma, 200 μM, 37°C, HPLC
Protocol: as §3

[9] = test system: tumor stroma and immune cells within CT26 tumors; test: FACS analysis of uptake by tumor stroma and immune cells within CT26 tumors; settings: mouse, in vivo, ip
Protocol: Animal studies on mice were conducted at the Charles River Discovery Service in compliance with the principles and procedures outlined by the National Institutes of Health for the care and use of animals. Uptake of Al647-pHLIP(Laa)-STINGa by tumor cells within CT26 tumors was analyzed by fluorescence activated cell sorting (FACS) analysis. […] When tumors reached 150-250 mm^3 in volume mice were separated into two groups. Eight mice from the treated group #1 received a single IP injection of Al647-pHLIP(Laa)-STINGa (300 µM 100 µl), and five mice from the control group #2 received single IP injection of vehicle (1% DMSO in PBS). 24 hours later all animals were euthanized, and tumors were collected for processing. Tumor stroma and immune cells were identified using the following markers:
• CD4 T cells: CD45^+, CD3^+, CD11b^-, CD4^+, CD8^- • CD8 T cells: CD45^+, CD3^+, CD11b^-, CD4^-, CD8^+ • Treg: CD45^+, CD3^+, CD11b^-, CD4^+, CD25^+, FoxP3^+ • mMDSC: CD45^+, CD3^-, CD11b^+, F4/80^-, Ly6C^high, Ly6G^- • gMDSC: CD45^+, CD3^-, CD11b^+, F4/80^-, Ly6C^low, Ly6G^+ • M1: CD45^+, CD11b^+, F4/80^+, CD206^- • M2: CD45^+, CD11b^+, F4/80^+, CD206^+ • DC: CD45^+, CD11b^+, CD11c^+, MHCII^+, F4/80^- • CAF: CD3^-, CD45^-, CD140b^+
The staining was performed for tumor samples, Fluorescence Minus One (FMO) controls and Single Color Controls (SCC) as indicated below:
The following anti-mouse antibodies were used: CD45-APC-Fire750 clone 30-F11, CD8a-BV650 clone 53-6.7, CD25-BV605 clone PC61, F4/80-PE-Dazzle-594 clone BM8, Ly-6C-FITC clone HK1.4, Ly-6G-BV785 clone 1A8, CD206-BV421 clone C068C2, CD140b-PE clone APB5, CD11c-BV711 clone N418, I-A/I-E-PE/Cy7 clone M5/114.15.2 from BioLegend; CD3e-BUV496 clone 145-2C11, CD4-BUV395 clone GK1.5; CD11b-BUV737 clone M1/70 from BD Biosciences, FoxP3 PerCP-Cy5.5 clone FJK-16s from Thermo Fisher and Live/Dead Aqua-V500 from Life Technologies. The procedure for tumor processing was the following: tumor samples were dissociated according to the manufacturer’s instructions using the gentleMACS™ protocol “Tumor Dissociation Kit”. Samples were filtered through a 70 µm cell strainer and rinsed twice in PBS/2.5% FBS buffer and total sample volumes were measured. Single cell suspensions were prepared in PBS pH 7.4 at 1x10^7 cells/mL and placed into individual wells of a 96-well plate and kept on ice. All incubation steps were carried out protected from light. The washing was performed by spinning the plate at 300x g (or 400x g) for 3 minutes and discarding the supernatant. Live/Dead reagent was added to each sample and incubated at 4°C for 15 minutes followed by washing. […]

AKDDQNPWRAYLDLLFPTDTLLLDLLWCG [ICG-pHLIP-STINGa]
half-life in blood [1]: 8.2 h
persistence of fluorescence signal in the tumor [2]: 8 days

diABZI [STINGa]
time by which all animals developed tumors [3]: ≤ 35 days p.i.
half-life [4]: 1.4 h

CCn1nc(C)cc1C(=O)Nc1nc2cc(C(N)=O)cc(OC)c2n1C/C=C/Cn1c(NC(=O)c2cc(C)nn2CC)nc2cc(C(N)=O)cc(OCCC[N+]3(Cc4ccc(NC(=O)OCCSSC[C@@H](NC(=O)[C@@H](Cc5c[nH]c6ccccc56)NC(=O)[C@@H](CC(C)C)NC(=O)[C@@H](CC(C)C)NC(=O)[C@@H](CC(=O)O)NC(=O)[C@@H](CC(C)C)NC(=O)[C@@H](CC(C)C)NC(=O)[C@@H](CC(C)C)NC(=O)[C@H](NC(=O)[C@@H](CC(=O)O)NC(=O)[C@H](NC(=O)[C@H]5CCCN5C(=O)[C@@H](Cc5ccccc5)NC(=O)[C@@H](CC(C)C)NC(=O)[C@@H](CC(C)C)NC(=O)[C@@H](CC(=O)O)NC(=O)[C@@H](CC(C)C)NC(=O)[C@@H](Cc5ccc(O)cc5)NC(=O)[C@@H](C)NC(=O)[C@@H](CCCNC(=N)N)NC(=O)[C@@H](Cc5c[nH]c6ccccc56)NC(=O)[C@H]5CCCN5C(=O)[C@@H](CC(N)=O)NC(=O)[C@@H](CC(=O)O)NC(=O)[C@@H](CCC(N)=O)NC(=O)[C@@H](CC(=O)O)NC(=O)[C@@H](C)N)[C@H](C)O)[C@H](C)O)C(=O)NCC(=O)O)cc4)CCOCC3)c21 [pHLIP(Daa)-STINGa] (H-[dA][dD][dQ][dD][dN][dP][dW][dR][dA][dY][dL][dD][dL][dL][dF][dP][dT][dD][dT][dL][dL][dL][dD][dL][dL][dW][dC](X1)G-OH; N-terminus and C-terminus assumed)
metabolised at 24 h, 200 μM ([5]; human plasma, over 24 hours, 37°C (text summary of Table S1), read-out: degradation): ~10%
amount of undegraded product (free fraction) ([5]; single donor human plasma, 200 μM, 37°C, 0 h, methanol precipitation, HPLC C18, UV): 99.4%
remaining at 2 h, 200 μM ([5]; single donor human plasma, 200 μM, 37°C, 2 h, methanol precipitation, HPLC C18, UV, read-out: amount of undegraded product (free fraction)): 99.2%
remaining at 4 h, 200 μM ([5]; single donor human plasma, 200 μM, 37°C, 4 h, methanol precipitation, HPLC C18, UV, read-out: amount of undegraded product (free fraction)): 97.6%
remaining at 24 h, 200 μM ([5]; single donor human plasma, 200 μM, 37°C, 24 h, methanol precipitation, HPLC C18, UV, read-out: amount of undegraded product (free fraction)): 89.6%
amount of undegraded product (free fraction) ([6]; BALB/c mouse plasma, 200 μM, 37°C, 0 h, methanol precipitation, HPLC C18, UV 220/280/320 nm): 99.4%
remaining at 2 h, 200 μM ([6]; BALB/c mouse plasma, 200 μM, 37°C, 2 h, methanol precipitation, HPLC C18, UV, read-out: amount of undegraded product (free fraction)): 90.9%
remaining at 4 h, 200 μM ([6]; BALB/c mouse plasma, 200 μM, 37°C, 4 h, methanol precipitation, HPLC C18, UV, read-out: amount of undegraded product (free fraction)): 84.5%
remaining at 24 h, 200 μM ([6]; BALB/c mouse plasma, 200 μM, 37°C, 24 h, methanol precipitation, HPLC C18, UV, read-out: amount of undegraded product (free fraction)): 58.2%
modified STINGa released from pHLIP ([6]; incubated with mouse plasma, 37°C (text summary of Table S1)): about 40%
binding to plasma proteins, in words ([7]; compared with the Laa version, especially human plasma proteins): much stronger binding to plasma proteins than the Laa version
amount of product bound to plasma proteins (in brackets) ([7]; 0 h): 0%
amount of product bound to plasma proteins (in brackets) ([7]; 2 h): 77.2%
amount of product bound to plasma proteins (in brackets) ([7]; 4 h): 84.4%
amount of product bound to plasma proteins (in brackets) ([7]; 24 h): 87.7%
amount of product bound to plasma proteins (in brackets) ([8]; 0 h): 0%
amount of product bound to plasma proteins (in brackets) ([8]; 2 h): 51.7%
amount of product bound to plasma proteins (in brackets) ([8]; 4 h): 59.6%
amount of product bound to plasma proteins (in brackets) ([8]; 24 h): 75.9%

AKDDQNPWRAYLDLLFPTDTLLLDLLWCG [Al647-pHLIP-STINGa]
% of cells taken Al647-pHLIP-STINGa: CAFs [9]: 74%
% of cells taken Al647-pHLIP-STINGa: CD8 T-cells [9]: 24%
% of cells taken Al647-pHLIP-STINGa: DCs [9]: 52%
% of cells taken Al647-pHLIP-STINGa: TAMs (CD206+) [9]: 71%

— publication PMC9622777, “Eradication of tumors and development of anti-cancer immunity using STINGa targeted by pHLIP” (Frontiers in Oncology, 2022)
